Measured values: patent US20040253587A1
Values joined by “and” are separate entries in the source; they are usually repeats but may differ in a detail not shown here. Equal values may be shown once.

What follows are substances tested against IL-15 receptor complex on CTLL-2 cells (assay: cell-based or functional assay).

Row | Substance | CTLL Inhibition Assay units/ml (Antagonist Activity) | concentration of antagonist required to neutralize 40 pg/ml IL-15 in CTLL inhibition assay
1 | IL-15 (from UniProt P40933 49-162) (ligand) | 279 units/ml | 
2 | IL-15-D56C (from UniProt P40933 49-162) (ligand) | 2e+06 units/ml and 5e+06 units/ml | 
3 | IL-15-D56C-Q156C (from UniProt P40933 49-162) (ligand) | 200000 units/ml | 
4 | IL-15-D56C-Q156S (from UniProt P40933 49-162) (ligand) | 700000 units/ml | 
5 | IL-15-D56S (from UniProt P40933 49-162) (ligand) | 220000 units/ml | 
6 | IL-15-D56S-Q156S (from UniProt P40933 49-162) (ligand) | 720000 units/ml | 
7 | IL-15-Q156C (from UniProt P40933 49-162) (ligand) | 3e+06 units/ml | 
8 | IL-15-Q156S (from UniProt P40933 49-162) (ligand) | 1.5e+06 units/ml | 
9 | PEG-IL-15-D56C (from UniProt P40933 49-162) (ligand) | 7.96e+06 units/ml | 7.7 ng/mL
